Laboratory results reported in patent publication US20130108636A1.

Biological target: gp120s
Experiment: binding assay, method not stated

B1: m36d1 (VHH)
chain: QVQLVQSGGGLVQPGGSLRLSCAASAFDFSDYEMSWVRQAPGKGLEWIGEINDSGNTIYNPSLKSRVTISRDNSKNTLYLQMNTLRAEDTAIYYCAIYGGNSGGEYWGQGTLVTVSSGGGGSGGGGSGGGGSQVQLVQSGGGLVQPGGSLRLSCAASAFDFSDYEMSWVRQAPGKGLEWIGEINDSGNTIYNPSLKSRVTISRDNSKNTLYLQMNTLRAEDTAIYYCAIYGGNSGGEYWGQGTLVTVSS
fold decrease in binding compared to m36: 16 fold
